The numbers were not newly measured in paper PMC6716794, which cites them from elsewhere.

The target in series [1] is Thrombin (Homo sapiens) (UniProt P00734).
The target of series [2] is thrombin ABE II (UniProt P00734).
In series [3] the target is thrombin ABE I (UniProt P00734). Description: NMR.

Sequence of PAR3GEL (O00254 39-374): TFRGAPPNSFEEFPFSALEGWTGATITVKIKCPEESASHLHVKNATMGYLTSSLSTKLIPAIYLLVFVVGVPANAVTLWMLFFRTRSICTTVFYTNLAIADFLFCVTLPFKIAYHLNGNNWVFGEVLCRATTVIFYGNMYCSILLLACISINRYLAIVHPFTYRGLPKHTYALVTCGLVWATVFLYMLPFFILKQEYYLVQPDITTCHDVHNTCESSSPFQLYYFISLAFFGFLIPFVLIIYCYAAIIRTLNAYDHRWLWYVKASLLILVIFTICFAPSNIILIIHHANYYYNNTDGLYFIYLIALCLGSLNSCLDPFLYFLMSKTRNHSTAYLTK

On to GpIbα 269-286 (from UniProt P07359), for which the Kd in series [1] and in series [2] was 5.9 nM in each case.
Turning to PAR3GEL (from UniProt O00254), in series [3], the Kd is 47000 nM.

As a reminder, the Kd is the constant that tells how readily two partners part at equilibrium.
